The subject of assay [1] is Xenopus embryos. The assay is described as follows: Dorsal axis duplication / dorsalization in Xenopus embryos after mRNA injection. Conditions: 4 cell embryo. The class given is in vivo.
Assay [2] has as its system carboxyl-terminal fragment of Xenopus frizzled 3. The assay is described as follows: Yeast two hybrid assay, interaction with frizzled 3 fragment. The class given is binding. The conditions noted are these: beta-galactosidase filter assay in S. cerevisiae. From the text: (§1) FL Xaxin was cloned in frame with the GAL4 DNA binding domain (BD) in plasmid pAS2-1 (Clontech) to yield BD plasmid. Expression of BD plasmid yielded a Xaxin-GAL4 fusion protein. FL Xaxin, deltaDIX Xaxin, and a fragment (designated “AID”) encoding amino acid residues 489-777 of Xaxin were cloned in frame with the GAL4 transcriptional activation domain (AD) in the vector pACT2 to yield AD plasmids. Yeast were transformed with BD and AD plasmids using previously described protocols (Clontech, Palo Alto, Calif.). Transformed colonies were selected and assayed for beta-galactosidase activity in order to detect interacting proteins. In addition, three Xenopus axin partial length cDNAs (designated Y2H 2, Y2H 6, Y2H 7; all in plasmid pACT2) isolated from a previous yeast two hybrid screen (Hedgepeth et al., 1999, Mech. Develop. 80:147-151) were analyzed. Purification of GID
(§2) Using the yeast two hybrid assay, the ability of axin to bind with itself, with other members of the wnt pathway, or with the G(alpha)q subunit of heterotrimeric G-proteins, was investigated. […]
(§3) Saccharomyces cerevisiae cells were transformed with the bait vector and with one of the target vectors. Interaction was assessed using a filter assay to detect beta-galactosidase activity, as described (Fields et al., 1989, Nature 340:245-247; Harper et al., 1993, Cell 75:805-816). […]

For assay [3], the system named is disheveled. The assay is described as follows: Yeast two hybrid assay, interaction with disheveled. The class given is binding. Conditions: beta-galactosidase filter assay in S. cerevisiae.
Description: as §1, §2, §3

The subject of assay [4] is GSK-3 beta. The assay is described as follows: Co-immunoprecipitation of GSK-3 beta with Myc-tagged Xaxin constructs in Xenopus oocytes. The conditions noted are these: Myc-tagged construct co-expressed with GSK-3 beta in Xenopus oocytes; anti-Myc IP, anti-GSK-3 beta blot. The class given is binding.
Assay [5] concerns LEF-1 dependent transcription (wnt signaling). The assay is described as follows: LEF-luciferase reporter of wnt signaling in 293T cells. The class given is cell-based. The conditions noted are these: 293T cells. The protocol:
LEF-1 (also designated tcf) is a DNA-binding protein that also binds with beta-catenin. The beta-catenin/LEF-1 complex is known to activate transcription of wnt target genes. A genetic construct was made which comprised this LEF-1-binding promoter operably linked with a luciferase gene, for use as a reporter of wnt signaling.
Single plasmids encoding individual GID fragments were transfected into 293T cells, together with the LEF-luciferase reporter, and luciferase activity was measured after 24 hours. GID fragments induced up to 100- to 250-fold activation of LEF-luciferase (normalized to activity from the mutated LEF-reporter control, which was activated less than 2-fold).

The test system of assay [6] is GSK-3 beta. The assay is described as follows: Yeast two hybrid assay, interaction with GSK-3 beta. The class given is binding. The conditions noted are these: beta-galactosidase filter assay in S. cerevisiae.
Description: as §1, §2, §3

Assay [7] addresses T1, G(alpha)q subunit of heterotrimeric G-proteins (Homo sapiens, UniProt P50148).
T1 sequence (P50148 1-359): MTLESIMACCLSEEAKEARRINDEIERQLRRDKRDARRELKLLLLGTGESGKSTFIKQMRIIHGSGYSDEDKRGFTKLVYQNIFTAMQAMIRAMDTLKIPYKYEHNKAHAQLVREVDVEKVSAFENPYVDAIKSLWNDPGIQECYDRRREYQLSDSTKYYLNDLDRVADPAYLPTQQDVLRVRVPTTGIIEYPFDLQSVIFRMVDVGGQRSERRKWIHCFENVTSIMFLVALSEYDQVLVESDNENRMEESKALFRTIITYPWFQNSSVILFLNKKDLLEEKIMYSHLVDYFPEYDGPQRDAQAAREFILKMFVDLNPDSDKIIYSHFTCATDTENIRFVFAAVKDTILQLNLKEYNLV
The assay is described as follows: Yeast two hybrid assay, interaction with G(alpha)q. Conditions: beta-galactosidase filter assay in S. cerevisiae. The class given is binding.
Description: as §1, §2, §3

In assay [8] the test system is beta-catenin. The assay is described as follows: beta-catenin protein accumulation in Xenopus oocytes (immunoblot). The class given is cell-based. The conditions noted are these: construct mRNA expressed in Xenopus oocytes. The procedure:
FIG. 2A is an image of an immunoblot of Xenopus cytoplasmic extracts obtained from Xenopus embryos in which beta-catenin was expressed, using an antibody which binds specifically with beta-catenin (described in McCrea et al., 1993, J. Cell. Biol. 123:477-84). The embryo corresponding to lane 2 was incubated in the presence of 20 millimolar LiCI. Extracts corresponding to lanes 3-5, 7, and 8 were obtained from embryos in which full-length (lane 8) Xaxin or the C-term (lane 3), GID1 (“GID”; lanes 4 and 7), or N-term (lane 5) fragments of Xaxin were expressed.
Although endogenous GSK-3 beta is not present at sufficient levels to detect using the tau assay, inhibition of GSK-3 beta is known to cause stabilization of cytoplasmic beta-catenin (Cadigan et al., 1997, Genes Dev. 11:3286-3305; Miller et al., 1996, Genes Develop. 10:2527-2539), and this serves as a widely used assay for downstream activation of wnt signaling. Inhibition of endogenous GSK-3 beta activity also causes stabilization of beta-catenin in Xenopus embryos and oocytes (Hedgepeth et al., 1997, Develop. Biol. 185:82-91; Yost et al., 1998, Cell 93:1031-1041; Yost et al., 1996, Genes Develop. 10:1443-1454). For this reason, levels of beta-catenin protein were assessed in Xenopus oocytes which had been injected either with full length Xaxin mRNA or with mRNA encoding one of the amino-terminal, GID, or carboxyl-terminal domains of Xaxin.
For orientation: A western blot detects proteins with antibodies after separation by electrophoresis.

The target of assay [9] is T2, carboxyl-terminal fragment of Xenopus frizzled 7 (Xenopus laevis, UniProt Q9PUK8).
T2 sequence (Q9PUK8 525-549 limits assumed): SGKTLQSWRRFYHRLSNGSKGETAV
Briefly: Yeast two hybrid assay, interaction with frizzled 7 fragment. The class given is binding. The conditions noted are these: beta-galactosidase filter assay in S. cerevisiae.
Description: as §1, §2, §3

For assay [10], the target named is T3, axin (Xenopus laevis, UniProt Q9YGY0).
T3 construct: Full length (FL) Xaxin was assembled into plasmid CS2MT using restriction fragments of partial cDNA clones; expressed in transfected cells; host or cells: Xenopus embryos (fertilized eggs injected with mRNA, harvested at stage 8)
The assay is described as follows: Co-immunoprecipitation of myc-tagged and HA-tagged axin in Xenopus embryos. The class given is binding.

Assay [11] has as its target T4, FL Xaxin (Xenopus laevis, UniProt Q9YGY0).
T4 construct: expressed in transfected cells; host or cells: Saccharomyces cerevisiae
The assay is described as follows: Yeast two hybrid assay, interaction with FL Xaxin. The class given is binding. The conditions noted are these: beta-galactosidase filter assay in S. cerevisiae.
Description: as §1, §2, §3

For assay [12], the system named is GSK-3 beta protein lacking amino-terminal or carboxyl-terminal residues. Briefly: Binding of full length axin to truncated GSK-3 beta. Conditions: GSK-3 beta lacking as many as 62 amino-terminal or 132 carboxyl-terminal residues.

Data on one molecule can be found in US20010052137A1, “Axin domain-like polypeptide inhibitors of glycogen synthase kinase 3 beta activity and activators of wnt signaling” (Trustees of the University of Pennsylvania, priority 2000, published 2001).

B1: full length Xaxin: full length Xenopus axin, amino acid residues 1-842 (SEQ ID NO: 8) (protein, listed as Xenopus laevis)
chain: MSVKGKGFPLDLGGSFTEDAPRPPVPGEEGELITTDQRPFSHTYYSLKNDGIKNETSTATPRRPDLDLGYEPEGSASPTPPYLKWAESLHSLLDDQDGIHLFRTFLQQENCADLLDFWFACSGFRKLEPNDSKVEKRLKLAKAIYKKYVLDSNGIVSRQIKPATKSFIKDCVLRQQIDPAMFDQAQMEIQSMMEDNTYPVFLKSDIYLEYTTIGGESPKNYSDQSSGSGTGKGPSGYLPTLNEDEEWRCDQGGEHERERECIPSSLFSQKLALDSSSHCAGSNRRLSDGREFRPGTWREPVNPYYVNTGYAGAPVTSANDSEQQSMSSDADTMSLTDSSVDGIPPYRLRKHYRREMQESANANGRGPLPHIPRTYHMPKDIHVDPEKFAAELISRLEGVLRDREAEQKLEERLKRVRAEEEGDDGDVSSGPSVISHKLPSGPPMHHFNSRYSETGCVGMQIRDAHEENPESILDEHVQRVMKTPGCQSPGTGRHSPKSRSPDGHLSKTLPGSLGTMQTGHGKHSSKSTAKVDSGNLHHHKHVYHHVHHHGGVKPKEQIDGESTQRVQTNFPWNVESHNYATKSRNYAESMGMAPNPMDSLAYSGKVSMLSKRNAKKADLGKSESASHEMPVVPEDSERHQKILQWIMEGEKEIIRHKKSNHSSSSAKKQPPTELARPLSIERPGAVHPWVSAQLRNVVQPSHPFIQDPTMPPNPAPNPLTQLVSKPGARLEEEEKKAAKMPQKQRLKPQKKNVSAPSQPCDNIVVAYYFCGEPIPYRTMVKGRVVTLGQFKELLTKKGNYRYYFKKVSDEFDCGVVFEEVREDDMILPIYEEKIIGQVEKID
B1: in assay [1] (mRNA injected or expressed dorsally), the “effect on axial development” value is on record as “caused ventralization”. In addition, in assay [1] (mRNA injected or expressed ventrally, scored at tadpole stage), the “secondary / ectopic axis formation” value is “induced formation of ectopic cement glands”. Besides, the “interaction with carboxyl-terminal fragment of Xenopus frizzled 3” value in [2] is reported as “did not interact”. Further, the interaction with disheveled entry in assay [3] was “did not interact”. Besides, the “binding with GSK-3 beta (co-immunoprecipitation)” value in [4] was “bound”. The “activation of wnt signaling (LEF-1-binding promoter luciferase reporter)” value in assay [5] is given as “not”. The “interaction with GSK-3 beta” value in [6] is listed as “interacted strongly”. In assay [7], the “interaction with G(alpha)q” value is “did not interact”. The accumulation of beta-catenin entry in assay [8] is “not observed”. In addition, the “interaction with carboxyl-terminal fragment of Xenopus frizzled 7” value in assay [9] is “did not interact”. In addition, the “axin self-interaction (co-immunoprecipitation)” value in assay [10] is given as “interacts with itself”. For the same molecule, the “interaction with FL Xaxin (self-interaction)” value in assay [11] is recorded as “interacted strongly”. The “binding with truncated GSK-3 beta” value in assay [12] is listed as “able to bind”.
